# Reference: the Human Domainome abundance scans (Beltran et al. 2025)
# ± gives the uncertainty stated by the source.
# B1: Double-stranded RNA-specific adenosine deaminase, residues 296 to 358; numbered along this chain, P55265 (parent)
# chain: MAEIKEKICDYLFNVSDSSALNLAKNIGLTKARDINAVLIDMERQGDVYRQGTTPPIWHLTDK
# Variants of: B1
# Experiment: abundance fitness (aPCA) (normalised: wild type 0, dead -1); higher = more abundant; growth selection in yeast, the domain comes from the species named
# Settings: Homo sapiens
row,Variant,abundance fitness
1,MAEIKEKICDYLFNVSDSSALNLAHNIGLTKARDINAVLIDMERQGDVYRQGTTPPIWHLTDK [K25H],-0.083 ± 0.082
2,MAEIKEKICDYLFNVSDSSALNLADNIGLTKARDINAVLIDMERQGDVYRQGTTPPIWHLTDK [K25D],-0.141 ± 0.1
3,MAEIKEKICDYLFNVSDSSALNLAKNIGLTKARDINAVLIDMERQGDVYVQGTTPPIWHLTDK [R50V],-0.381 ± 0.059
4,MAEIKEKICDYLFNVSDSSALNLAKNIGLTKARDINAVLIDMERQGDVYYQGTTPPIWHLTDK [R50Y],-0.985 ± 0.19
5,MAEIKEKICDRLFNVSDSSALNLAKNIGLTKARDINAVLIDMERQGDVYRQGTTPPIWHLTDK [Y11R],-0.376 ± 0.046
6,MAEIKEKICDNLFNVSDSSALNLAKNIGLTKARDINAVLIDMERQGDVYRQGTTPPIWHLTDK [Y11N],-0.407 ± 0.16
7,MAEIKEKICDYLFNVSDSSALNLAKNKGLTKARDINAVLIDMERQGDVYRQGTTPPIWHLTDK [I27K],-0.324 ± 0.084
8,MAEIKEKICDYLFNVSDSSALNLAKNAGLTKARDINAVLIDMERQGDVYRQGTTPPIWHLTDK [I27A],-0.471 ± 0.053
9,MAEIKEKICDYLFNVSDSSALNLAKNQGLTKARDINAVLIDMERQGDVYRQGTTPPIWHLTDK [I27Q],-0.507 ± 0.072
10,MAEIKEKICDYLFNVSDSSALNLAKNIGLTKARDINAVLIDMERQGDVYRQGTTPPIWHLNDK [T61N],-0.124 ± 0.075
11,MAEIKEKICDYLFNVSDSSALNLAKNIGLTKARDINAVLIDMERQGDVYRQGTWPPIWHLTDK [T54W],-0.513 ± 0.077
12,MAEIKEKICDYLFNVSDSSALNLAKNIGLTKARDINAVLIDMERQGDVYRQGTGPPIWHLTDK [T54G],-0.32 ± 0.05
13,MAEIKEKICDYLFNVSDSSALNLAKNIGLTKARDINAVLIDMERQGDVYRQGTLPPIWHLTDK [T54L],-0.448 ± 0.05
14,MAEIKEKICDYLFLVSDSSALNLAKNIGLTKARDINAVLIDMERQGDVYRQGTTPPIWHLTDK [N14L],-0.121 ± 0.047
15,MAEIKEKICDYLFNVSDSSALNLAKKIGLTKARDINAVLIDMERQGDVYRQGTTPPIWHLTDK [N26K],-0.057 ± 0.068
16,MAEIKEKICDYLFNVSDSSALNLAKMIGLTKARDINAVLIDMERQGDVYRQGTTPPIWHLTDK [N26M],-0.328 ± 0.07
17,MAEIKEKICDYLFNVSDSSALNLAKNIGLTKARDINAALIDMERQGDVYRQGTTPPIWHLTDK [V38A],0.343 ± 0.061
18,MAEIKEKICDYLFNVSDSSALNLAKNIGLTKARDINAHLIDMERQGDVYRQGTTPPIWHLTDK [V38H],-0.31 ± 0.11
19,MAEIKEKICDYLFNVSDSSALNLAKNIGLTKPRDINAVLIDMERQGDVYRQGTTPPIWHLTDK [A32P],-0.162 ± 0.065
20,MAEIKEKICDYLFNVSDSSALNLAKNIGLTKARDINAVLIDMERQGDVYRQGTTPPKWHLTDK [I57K],-0.149 ± 0.065
21,MAEIKEKICDYLFNVSDSSALNLAKNIGLTKARDINAVLIDMERQGDVYRQGTTPPGWHLTDK [I57G],-0.449 ± 0.048
22,MAEIKEKICDYLFNVSDSSALNLAKNIGLTKARDINNVLIDMERQGDVYRQGTTPPIWHLTDK [A37N],-0.247 ± 0.097

row,Variant,abundance fitness
1,MAEIKEKICDYLFNVSDSSALNLAKNIGLTKARDINHVLIDMERQGDVYRQGTTPPIWHLTDK [A37H],0.039 ± 0.066
2,MAEIKEKICDYLFNVSDISALNLAKNIGLTKARDINAVLIDMERQGDVYRQGTTPPIWHLTDK [S18I],-1.01 ± 0.21
3,MAEIKEKICDYLFNVSDKSALNLAKNIGLTKARDINAVLIDMERQGDVYRQGTTPPIWHLTDK [S18K],-0.549 ± 0.063
4,MAEIKEKICDYLFNVSDSSALNLAKNIGLTKARDINAVLIDMERQGDVYRQGTTPPIWHLTDH [K63H],-0.374 ± 0.31
5,MAEIKEKICDYLFNVSDSSALNLAKNIGLTKARDINAVLIDMERQGDVYRQGTTPPIWHLTDY [K63Y],-0.634 ± 0.15
6,MAEIKEKICDYLFNVSDSSALNLAKNIGLTKARDINAVLIDMERQGDVYRQGTTPPIWHVTDK [L60V],-0.516 ± 0.062
7,MAEIKEKICDYLFNVSDSSALNLCKNIGLTKARDINAVLIDMERQGDVYRQGTTPPIWHLTDK [A24C],-0.179 ± 0.079
8,MAEIKEKICDYLFNVSDSSLLNLAKNIGLTKARDINAVLIDMERQGDVYRQGTTPPIWHLTDK [A20L],-0.42 ± 0.057
9,MAEIKEKICDYLFNVSDSSPLNLAKNIGLTKARDINAVLIDMERQGDVYRQGTTPPIWHLTDK [A20P],-0.673 ± 0.1
10,MAEIKEKICDYLFNVSDSSILNLAKNIGLTKARDINAVLIDMERQGDVYRQGTTPPIWHLTDK [A20I],-0.68 ± 0.12
11,MAEIKEKICDYLFNVSDSSALNLAKNIGLTKARDINAVLIDMERQGDVYRQKTTPPIWHLTDK [G52K],-0.367 ± 0.1
12,MAEIKEKICDYLFNVSDSSALNLAKNIGLTKARDINAVLIDMERQGDVYRQMTTPPIWHLTDK [G52M],-0.812 ± 0.16
13,MAEIKEWICDYLFNVSDSSALNLAKNIGLTKARDINAVLIDMERQGDVYRQGTTPPIWHLTDK [K7W],-0.471 ± 0.27
14,MAEIKEQICDYLFNVSDSSALNLAKNIGLTKARDINAVLIDMERQGDVYRQGTTPPIWHLTDK [K7Q],-0.938 ± 0.39
15,MAEIKEKICDYLFNVSDSSALNLAKNIGLTTARDINAVLIDMERQGDVYRQGTTPPIWHLTDK [K31T],0.066 ± 0.055
16,MAEIKEKICDYLFNVSDSSALNLAKNIGLTWARDINAVLIDMERQGDVYRQGTTPPIWHLTDK [K31W],-0.635 ± 0.078
17,MAEIKEKICDYLFNVSDSSALNLAKNIGLTKARDINAVLHDMERQGDVYRQGTTPPIWHLTDK [I40H],-0.218 ± 0.071
18,MAEIKEKICDYLFNVSDSSALNLAKNIGLTKARDINAVLKDMERQGDVYRQGTTPPIWHLTDK [I40K],-0.025 ± 0.052
19,MAEIKEKICDYLFNVSDSSALNLAKNIGLTKARDINAVLNDMERQGDVYRQGTTPPIWHLTDK [I40N],0.075 ± 0.052
20,MAEIKEKICDYLFNVSDSSALNLAKNIGLTKARDINAVLFDMERQGDVYRQGTTPPIWHLTDK [I40F],-0.165 ± 0.11
21,MAEIKEKICDYLFNVSDSSALNLAKNIGLTKARDINAVLADMERQGDVYRQGTTPPIWHLTDK [I40A],0.083 ± 0.056
